Laboratory results as given in the array DNA melting data of Ke et al..

Assay: melting temperature; melt of duplexes
Details: sodium 0.0675 M; strand 1 µM
“CGACGTGCGCAATGTGCTG+CAGCACATGCGGCACGTCG ((((((((...((((((((+))))))))...))))))))” gave a Tm of 56.3 °C. “CGACGTGCAAGATGTGCTG+CAGCACATTTGGCACGTCG ((((((((.(.((((((((+)))))))).).))))))))” showed a Tm of 52.5 °C. Work on “CGACGTGCAGCATGTGCTG+CAGCACATATAGCACGTCG ((((((((...((((((((+))))))))...))))))))” yielded a Tm of 46.3 °C. In the case of “CGACGTGCTGGATGTGCTG+CAGCACATAGTGCACGTCG ((((((((...((((((((+))))))))...))))))))”, the Tm is reported as 45 °C. Substance “CGACGTGCCGGATGTGCTG+CAGCACATGACGCACGTCG ((((((((...((((((((+))))))))...))))))))” has a Tm of 46.3 °C. Work on “CGACGTGCTGGATGTGCTG+CAGCACATCCTGCACGTCG ((((((((.((((((((((+)))))))))).))))))))” yielded a Tm of 61.2 °C. In the case of “CGACGTGCAATATGTGCTG+CAGCACATACGGCACGTCG ((((((((..(((((((((+)))))))))..))))))))”, the Tm is reported as 49.4 °C. Work on “CGACGTGCGAAATGTGCTG+CAGCACATCCCGCACGTCG (((((((((..((((((((+))))))))..)))))))))” yielded a Tm of 52.9 °C. For “CGACGTGCCTGATGTGCTG+CAGCACATGTGGCACGTCG (((((((((..((((((((+))))))))..)))))))))”, the Tm was 54.9 °C. For “CGACGTGCGTAATGTGCTG+CAGCACATCACGCACGTCG ((((((((((.((((((((+)))))))).))))))))))”, the Tm was 58 °C. “CGACGTGCTATATGTGCTG+CAGCACATCACGCACGTCG ((((((((...((((((((+))))))))...))))))))” showed a Tm of 47.9 °C. With “CGACGTGCTCGATGTGCTG+CAGCACATGGTGCACGTCG ((((((((.(.((((((((+)))))))).).))))))))” the Tm was 49.7 °C. “CGACGTGCAAAATGTGCTG+CAGCACATACCGCACGTCG ((((((((...((((((((+))))))))...))))))))” showed a Tm of 48.1 °C. With “CGACGTGCCAAATGTGCTG+CAGCACATGTGGCACGTCG ((((((((((.((((((((+)))))))).))))))))))” the Tm was 58.5 °C. For “CGACGTGCTAAATGTGCTG+CAGCACATCGTGCACGTCG ((((((((...((((((((+))))))))...))))))))”, the Tm was 44.7 °C. In the case of “CGACGTGCCGAATGTGCTG+CAGCACATTAAGCACGTCG ((((((((..(((((((((+)))))))))..))))))))”, the Tm is reported as 52.3 °C. In the case of “CGACGTGCTGCATGTGCTG+CAGCACATACAGCACGTCG ((((((((((.((((((((+)))))))).))))))))))”, the Tm is reported as 58.2 °C. “CGACGTGCACGATGTGCTG+CAGCACATATAGCACGTCG ((((((((...((((((((+))))))))...))))))))” showed a Tm of 45.6 °C. Substance “CGACGTGCAAGATGTGCTG+CAGCACATGCGGCACGTCG ((((((((...((((((((+))))))))...))))))))” has a Tm of 50.2 °C. For “CGACGTGCTCTATGTGCTG+CAGCACATGATGCACGTCG ((((((((...((((((((+))))))))...))))))))”, the Tm was 51.1 °C. For “CGACGTGCCGGATGTGCTG+CAGCACATGCCGCACGTCG ((((((((.(.((((((((+)))))))).).))))))))”, the Tm was 53.4 °C. “CGACGTGCTTGATGTGCTG+CAGCACATTGCGCACGTCG ((((((((...((((((((+))))))))...))))))))” gave a Tm of 48.1 °C. “CGACGTGCGTGATGTGCTG+CAGCACATATGGCACGTCG ((((((((...((((((((+))))))))...))))))))” gave a Tm of 50 °C. In the case of “CGACGTGCCGTATGTGCTG+CAGCACATGCCGCACGTCG ((((((((.(.((((((((+)))))))).).))))))))”, the Tm is reported as 51.6 °C. With “CGACGTGCCGGATGTGCTG+CAGCACATGATGCACGTCG ((((((((...((((((((+))))))))...))))))))” the Tm was 49 °C. Substance “CGACGTGCATAATGTGCTG+CAGCACATATGGCACGTCG ((((((((...((((((((+))))))))...))))))))” has a Tm of 50.4 °C. “CGACGTGCAGCATGTGCTG+CAGCACATCAGGCACGTCG ((((((((...((((((((+))))))))...))))))))” gave a Tm of 47.3 °C. With “CGACGTGCTGGATGTGCTG+CAGCACATGATGCACGTCG ((((((((...((((((((+))))))))...))))))))” the Tm was 51.7 °C. “CGACGTGCGAAATGTGCTG+CAGCACATGCGGCACGTCG ((((((((...((((((((+))))))))...))))))))” gave a Tm of 51.7 °C. “CGACGTGCGACATGTGCTG+CAGCACATCAGGCACGTCG ((((((((...((((((((+))))))))...))))))))” gave a Tm of 49 °C. In the case of “CGACGTGCGAGATGTGCTG+CAGCACATCCCGCACGTCG (((((((((.(((((((((+))))))))).)))))))))”, the Tm is reported as 60.3 °C. In the case of “CGACGTGCGCGATGTGCTG+CAGCACATTTAGCACGTCG ((((((((...((((((((+))))))))...))))))))”, the Tm is reported as 52.2 °C. In the case of “CGACGTGCAAAATGTGCTG+CAGCACATCTTGCACGTCG ((((((((((.((((((((+)))))))).))))))))))”, the Tm is reported as 54 °C. In the case of “CGACGTGCCTCATGTGCTG+CAGCACATCCCGCACGTCG ((((((((...((((((((+))))))))...))))))))”, the Tm is reported as 46.5 °C. Substance “CGACGTGCCGAATGTGCTG+CAGCACATTTCGCACGTCG ((((((((..(((((((((+)))))))))..))))))))” has a Tm of 52.4 °C. “CGACGTGCGGAATGTGCTG+CAGCACATTGCGCACGTCG (((((((((.(((((((((+))))))))).)))))))))” gave a Tm of 61.2 °C. In the case of “CGACGTGCGAAATGTGCTG+CAGCACATGAGGCACGTCG ((((((((...((((((((+))))))))...))))))))”, the Tm is reported as 54.5 °C. For “CGACGTGCAGGATGTGCTG+CAGCACATACCGCACGTCG ((((((((.(.((((((((+)))))))).).))))))))”, the Tm was 53.7 °C. With “CGACGTGCGTAATGTGCTG+CAGCACATATCGCACGTCG (((((((((..((((((((+))))))))..)))))))))” the Tm was 55.6 °C. In the case of “CGACGTGCACTATGTGCTG+CAGCACATTGCGCACGTCG ((((((((.(.((((((((+)))))))).).))))))))”, the Tm is reported as 48.8 °C. In the case of “CGACGTGCAGCATGTGCTG+CAGCACATCGTGCACGTCG (((((((((..((((((((+))))))))..)))))))))”, the Tm is reported as 44.1 °C. “CGACGTGCAGGATGTGCTG+CAGCACATCCTGCACGTCG (((((((((((((((((((+)))))))))))))))))))” showed a Tm of 66 °C. Substance “CGACGTGCTCGATGTGCTG+CAGCACATGTTGCACGTCG ((((((((...((((((((+))))))))...))))))))” has a Tm of 49.5 °C. “CGACGTGCAGCATGTGCTG+CAGCACATATTGCACGTCG (((((((((..((((((((+))))))))..)))))))))” showed a Tm of 49.1 °C. For “CGACGTGCGGGATGTGCTG+CAGCACATTCCGCACGTCG ((((((((((.((((((((+)))))))).))))))))))”, the Tm was 62.8 °C. Work on “CGACGTGCTCTATGTGCTG+CAGCACATCCCGCACGTCG ((((((((...((((((((+))))))))...))))))))” yielded a Tm of 47.5 °C. “CGACGTGCAACATGTGCTG+CAGCACATCACGCACGTCG ((((((((...((((((((+))))))))...))))))))” showed a Tm of 46.5 °C. In the case of “CGACGTGCTCGATGTGCTG+CAGCACATCTCGCACGTCG ((((((((..(((((((((+)))))))))..))))))))”, the Tm is reported as 53.3 °C. With “CGACGTGCCAAATGTGCTG+CAGCACATCATGCACGTCG ((((((((...((((((((+))))))))...))))))))” the Tm was 48.3 °C. Substance “CGACGTGCAGGATGTGCTG+CAGCACATTCAGCACGTCG ((((((((.(.((((((((+)))))))).).))))))))” has a Tm of 54.1 °C. Work on “CGACGTGCATGATGTGCTG+CAGCACATGTAGCACGTCG ((((((((...((((((((+))))))))...))))))))” yielded a Tm of 49.9 °C. In the case of “CGACGTGCCACATGTGCTG+CAGCACATTTGGCACGTCG ((((((((((.((((((((+)))))))).))))))))))”, the Tm is reported as 57.6 °C. For “CGACGTGCGAGATGTGCTG+CAGCACATCTTGCACGTCG ((((((((.((((((((((+)))))))))).))))))))”, the Tm was 60.2 °C. “CGACGTGCATAATGTGCTG+CAGCACATACTGCACGTCG (((((((((..((((((((+))))))))..)))))))))” gave a Tm of 50.5 °C. “CGACGTGCACCATGTGCTG+CAGCACATGAAGCACGTCG ((((((((..(((((((((+)))))))))..))))))))” gave a Tm of 51 °C. Substance “CGACGTGCGAGATGTGCTG+CAGCACATTCTGCACGTCG ((((((((...((((((((+))))))))...))))))))” has a Tm of 52.9 °C. In the case of “CGACGTGCATAATGTGCTG+CAGCACATTCAGCACGTCG ((((((((..(((((((((+)))))))))..))))))))”, the Tm is reported as 52 °C. Substance “CGACGTGCCCTATGTGCTG+CAGCACATGCTGCACGTCG ((((((((...((((((((+))))))))...))))))))” has a Tm of 45.4 °C. Substance “CGACGTGCGACATGTGCTG+CAGCACATCTAGCACGTCG ((((((((.(.((((((((+)))))))).).))))))))” has a Tm of 51.5 °C. “CGACGTGCTGGATGTGCTG+CAGCACATCGAGCACGTCG (((((((((.(((((((((+))))))))).)))))))))” showed a Tm of 59.3 °C. Substance “CGACGTGCCGAATGTGCTG+CAGCACATTCCGCACGTCG ((((((((.((((((((((+)))))))))).))))))))” has a Tm of 56 °C. Work on “CGACGTGCCCGATGTGCTG+CAGCACATACAGCACGTCG ((((((((...((((((((+))))))))...))))))))” yielded a Tm of 49.1 °C. “CGACGTGCCAGATGTGCTG+CAGCACATGGCGCACGTCG ((((((((...((((((((+))))))))...))))))))” gave a Tm of 50.4 °C. With “CGACGTGCGCCATGTGCTG+CAGCACATTTAGCACGTCG ((((((((...((((((((+))))))))...))))))))” the Tm was 50.1 °C. In the case of “CGACGTGCCCTATGTGCTG+CAGCACATAACGCACGTCG ((((((((..(((((((((+)))))))))..))))))))”, the Tm is reported as 48.7 °C. “CGACGTGCTAAATGTGCTG+CAGCACATTTCGCACGTCG ((((((((.((((((((((+)))))))))).))))))))” showed a Tm of 55.3 °C. For “CGACGTGCTGAATGTGCTG+CAGCACATAGAGCACGTCG (((((((((..((((((((+))))))))..)))))))))”, the Tm was 52.2 °C. “CGACGTGCTGTATGTGCTG+CAGCACATCGTGCACGTCG ((((((((...((((((((+))))))))...))))))))” gave a Tm of 46.4 °C. Substance “CGACGTGCTGTATGTGCTG+CAGCACATAGGGCACGTCG ((((((((..(((((((((+)))))))))..))))))))” has a Tm of 52.2 °C. In the case of “CGACGTGCTGCATGTGCTG+CAGCACATCTAGCACGTCG (((((((((..((((((((+))))))))..)))))))))”, the Tm is reported as 52.4 °C. For “CGACGTGCATTATGTGCTG+CAGCACATGTAGCACGTCG ((((((((...((((((((+))))))))...))))))))”, the Tm was 49.4 °C. In the case of “CGACGTGCACCATGTGCTG+CAGCACATCCGGCACGTCG ((((((((...((((((((+))))))))...))))))))”, the Tm is reported as 42.7 °C.
